Experimental data reported in PMC4695161, “Multifaceted interactions and regulation between antizyme and its interacting proteins cyclin D1, ornithine decarboxylase and antizyme inhibitor” (Oncotarget, 2015).

B1: human ornithine decarboxylase (ODC) (enzyme, UniProt P11926 1-461, looked up)
chain: MNNFGNEEFDCHFLDEGFTAKDILDQKINEVSSSDDKDAFYVADLGDILKKHLRWLKALPRVTPFYAVKCNDSKAIVKTLAATGTGFDCASKTEIQLVQSLGVPPERIIYANPCKQVSQIKYAANNGVQMMTFDSEVELMKVARAHPKAKLVLRIATDDSKAVCRLSVKFGATLRTSRLLLERAKELNIDVVGVSFHVGSGCTDPETFVQAISDARCVFDMGAEVGFSMYLLDIGGGFPGSEDVKLKFEEITGVINPALDKYFPSDSGVRIIAEPGRYYVASAFTLAVNIIAKKIVLKEQTGSDDEDESSEQTFMYYVNDGVYGSFNCILYDHAHVKPLLQKRPKPDEKYYSSSIWGPTCDGLDRIVERCDLPEMHVGDWMLFENMGAYTVAAASTFNGFQRPTIYYVMSGPAWQLMQQFQNPDFPPEVEEQDASTLPVSCAWESGMKRHRAACASASINV
notes: ornithine decarboxylase (ODC), human; source: purified recombinant; expression not described
B2: N-terminal CCND1 peptide CCND1(21-154) (domain or fragment, human, UniProt P24385 21-154, looked up)
chain: NLLNDRVLRAMLKAEETCAPSVSYFKCVQKEVLPSMRKIVATWMLEVCEEQKCEEEVFPLAMNYLDRFLSLEPVKKSRLQLLGATCMFVASKMKETIPLTAEKLCIYTDNSIRPEELLQMELLLVNKLKWNLAA
notes: source: truncated by deletion mutagenesis of the human CCND1 plasmid
B3: N-terminal AZ peptide AZ(34-124) (domain or fragment)
chain: not shown
notes: also called AZ N-terminal peptide; source: truncated by deletion mutagenesis of the human AZ plasmid
B4: human antizyme (AZ), wild type (natural protein)
chain: not shown
notes: antizyme (AZ), human; Natural AZ needs a +1 frameshift for translation; also called AZWT; full-length AZ; source: E. coli JM109 (pQE30), purified (Ni-NTA)

How the values were obtained:
Conditions in all cases: both partners purified
[1] = target: T1, pre-formed AZ-CCND1 complex (human, UniProt P54368 1-228; P24385 1-295); test: AUC; sedimentation velocity; AZ pre-incubated 1 hour with ODC (or CCND1) at molar ratio 1, then the third protein (CCND1 or ODC) at varied concentration; 30 mM Tris-HCl pH 7.4, 50 mM NaCl, 20°C
T1 construct: antizyme (AZ), human, as m1; cyclin D1 (CCND1), human, as m2; Molar ratio AZ/CCND1 fixed at 1; also called CCND1-AZ complex; source: AZ pre-incubated with CCND1 for 1 hour (purified recombinant proteins)
T1 sequence (P54368 whole entry, chain 1 of 2): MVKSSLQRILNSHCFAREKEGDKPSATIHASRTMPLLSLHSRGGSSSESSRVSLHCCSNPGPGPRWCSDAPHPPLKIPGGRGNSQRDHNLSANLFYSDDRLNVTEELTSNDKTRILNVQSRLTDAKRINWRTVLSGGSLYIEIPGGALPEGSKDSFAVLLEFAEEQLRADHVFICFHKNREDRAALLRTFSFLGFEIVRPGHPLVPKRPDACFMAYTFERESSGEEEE
T1 sequence (P24385 whole entry, chain 2 of 2): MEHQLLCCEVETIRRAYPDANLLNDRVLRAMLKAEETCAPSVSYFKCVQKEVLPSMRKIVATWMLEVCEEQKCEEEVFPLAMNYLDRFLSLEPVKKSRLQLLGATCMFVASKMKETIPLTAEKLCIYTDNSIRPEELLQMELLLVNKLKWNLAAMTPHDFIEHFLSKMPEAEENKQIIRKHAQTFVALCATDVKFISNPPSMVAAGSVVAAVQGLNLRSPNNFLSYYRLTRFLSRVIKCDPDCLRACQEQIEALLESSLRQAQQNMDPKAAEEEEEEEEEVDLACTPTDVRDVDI

[2] = target: B4; test: AUC; sedimentation velocity, size distribution of mixtures at molar ratio AZ/CCND1 of 1; 30 mM Tris-HCl pH 7.4, 50 mM NaCl, 20°C; no constant fitted
human cyclin D1 (CCND1) = target: T2, human cyclin D1 (CCND1) (human, UniProt P24385 1-295); test: AUC; sedimentation velocity; AZ or AZ peptide at a fixed concentration, three concentrations of CCND1; 30 mM Tris-HCl pH 7.4, 50 mM NaCl; global fit (SEDPHAT) to A+B↔AB hetero-association
T2 construct: cyclin D1 (CCND1), human; source: E. coli JM109 (pQE30), purified (Ni-NTA)
T2 sequence (P24385 whole entry): as the sequence (P24385 whole entry, chain 2 of 2) above

With B1 as the binder, how does the Kd [1] read?
Its Kd is 1260 ± 20 nM.

Does B2 bind [2]?
Result: binds

With B3 as the binder, how does the Kd (human cyclin D1 (CCND1)) read?
The Kd was 870 ± 10 nM.

With B4 as the binder, how does the Kd (human cyclin D1 (CCND1)) read?
Its Kd is 810 ± 20 nM.
